Laboratory results: patent US6635450

T1: Kip1 (28-79), 52-amino acid peptide with a C-terminal hexahistidine tag
T1 chain: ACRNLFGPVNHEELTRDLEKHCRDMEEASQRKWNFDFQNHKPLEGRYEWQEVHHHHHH

T2: p27 protein, the 27 kD cyclin E-Cdk2 binding protein of Mv1Lu mink epithelial cells (endogenous)
T2 chain: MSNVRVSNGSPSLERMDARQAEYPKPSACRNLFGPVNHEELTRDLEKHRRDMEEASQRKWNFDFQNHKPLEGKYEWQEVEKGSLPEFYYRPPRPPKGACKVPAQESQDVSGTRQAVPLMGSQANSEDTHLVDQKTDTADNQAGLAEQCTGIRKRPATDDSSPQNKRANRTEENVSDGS

T3: recombinant mouse Kip1 with a C-terminal hexahistidine sequence (expressed in BL21(DE3) bacteria from pET21a)
T3 chain: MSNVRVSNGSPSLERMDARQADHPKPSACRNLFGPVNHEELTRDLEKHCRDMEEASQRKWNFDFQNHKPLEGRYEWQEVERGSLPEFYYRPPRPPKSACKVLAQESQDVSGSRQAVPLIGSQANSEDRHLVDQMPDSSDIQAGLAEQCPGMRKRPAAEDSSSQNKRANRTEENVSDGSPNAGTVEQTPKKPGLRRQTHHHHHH

B1: cyclin D2-Cdk4 complex (baculovirus produced, co-infected Sf9 cells) (protein)
chain 1: MELLCCEVDPVRRAVPDRNLLEDRVLQNLLTIEERYLPQCSYFKCVQKDIQPYMRRMVATWMLEVCEEQKCEEEVFPLAMNYLDRFLAGVPTPKTHLQLLGAVCMFLASKLKETIPLTAEKLCIYTDNSVKPQELLEWELVVLGKLKWNLAAVTPHDFIEHILRKLPQQKEKLSLIRKHAQTFIALCATDFKFAMYPPSMIATGSVGAAICGLQQDDEVNTLTCDALTELLAKITHTDVDCLKACQEQIEALLLNSLQQFRQEQHNAGSKSVEDPDQATTPTDVRDVDL
chain 2: MAATRYEPVAEIGVGAYGTVYKARDPHSGHFVALKSVRVPNGGAAGGGLPVSTVREVALLRRLEAFEHPNVVRLMDVCATSRTDRDIKVTLVFEHIDQDLRTYLDKAPPPGLPVETIKDLMRQFLSGLDFLHANCIVHRDLKPENILVTSNGTVKLADFGLARIYSYQMALTPVVVTLWYRAPEVLLQSTYATPVDMWSVGCIFAEMFRRKPLFCGNSEADQLGKIFDLIGLPPEDDWPREVSLPRGAFAPRGPRPVQSVVPEMEESGAQLLLEMLTFNPHKRISAFRALQHSYLHKEESDAE
B2: cyclin D1-Cdk4 complex (baculoviral, co-infected Sf9 cells) (protein)
chain 1: MEHQLLCCEVETIRRAYPDTNLLNDRVLRAMLKTEETCAPSVSYFKCVQKEIVPSMRKIVATWMLEVCEEQKCEEEVFPLAMNYLDRFLSLEPLKKSRLQLLGATCMFVASKMKETIPLTAEKLCIYTDNSIRPEELLQMELLLVNKLKWNLAAMTPHDFIEHFLSKMPEADENKQTIRKHAQTFVALCATDVKFISNPPSMVAAGSVVAAMQGLNLGSPNNFLSCYRTTHFLSRVIKCDPDCLRACQEQIEALLESSLRQAQQNVDPKATEEEGEVEEEAGLACTPTDVRDVDI
chain 2: B1 chain 2
B3: Cdk4 alone (baculoviral, Sf9 lysate) (protein)
chain: B1 chain 2
B4: cyclin D3-Cdk4 complex (baculoviral, co-infected Sf9 cells) (protein)
chain 1: MELLCCEGTRHAPRAGPDPRLLGDQRVLQSLLRLEERYVPRASYFQCVQKEIKPHMRKMLAYWMLEVCEEQRCEEDVFPLAMNYLDRYLSCVPTRKAQLQLLGTVCLLLASKLRETTPLTIEKLCIYTDQAVAPWQLREWEVLVLGKLKWDLAAVIAHDFLALILHRLSLPSDRQALVKKHAQTFLALCATDYTFAMYPPSMIATGSIGAAVLGLGACSMSADELTELLAGITGTEVDCLRACQEQIEAALRESLREAAQTAPSPVPKAPRGSSSQGPSQTSTPTDVTAIHL
chain 2: B1 chain 2

How the values were obtained:
[1] = biological target: T1, Kip1 (28-79), 52-amino acid peptide …
[2] = biological target: T2, p27 protein, the 27 kD cyclin E-Cdk2 …
[3] = biological target: T3, recombinant mouse Kip1 with a …

Protein	Rb phosphorylation [1]	activation of Cdk2 by cyclin E in extracts (cyclin E-associated histone H1 kinase activity) [2]	Rb kinase activity (phosphorylation of a GST-Rb fusion product) [3]	lowering of the cyclin E threshold for Cdk2 activation (cyclin E-associated histone H1 kinase activity) [2]
B1	inhibited cyclin E-Cdk2 or cyclin D2:Cdk4 less effectively	Addition of cyclin D2-Cdk4 complexes, but neither subunit alone, to extracts from contact inhibited and TGF-β arrested cells allowed cyclin E to activate Cdk2 to a level equivalent to that observed in extracts from proliferating cells	Addition of Kip1 to cyclin E-Cdk2, cyclin A-Cdk2 or cyclin D2-Cdk4 complexes inhibited their ability to phosphorylate a GST-Rb fusion product	
B2				Equal amounts of cyclin Di-Cdk4 and cyclin D3-Cdk4 complexes, as estimated by immunoblotting of Sf9 lysates, were much less effective in lowering the cyclin E threshold for Cdk2 activation
B3		Addition of cyclin D2-Cdk4 complexes, but neither subunit alone, to extracts from contact inhibited and TGF-β arrested cells allowed cyclin E to activate Cdk2		
B4				Equal amounts of cyclin Di-Cdk4 and cyclin D3-Cdk4 complexes, as estimated by immunoblotting of Sf9 lysates, were much less effective in lowering the cyclin E threshold for Cdk2 activation
